PMC9795577, “Protein import into peroxisomes occurs through a nuclear pore-like phase” (Science (New York, N.Y.), 2022)

B1: entire unstructured N-terminal region (including the YG domain) of Arabidopsis thaliana PEX13, amino acids 1–193 (domain or fragment)
chain: MASQPAGGSPPKPWEKEGNTSGPNPFRPPSNTSTAGSVEASGTANPGEVVPPPVNRPNTAANMNSLSRPVPARPWEQQNYGSTMGGGYGSNLGMTSGYGSGTYGSALGGYGSSYGGGMYGGSSMYRGGYGGGGLYGSSGMYGGGAMGGYGGTMGGYGMGMGTGMGMGMGMGMGGPYGSQDPNDPFNQPPSPPGC
notes: PEX13 of Arabidopsis thaliana, GenBank NP_187412.1, amino acids 1-193; single engineered cysteine at the C terminus for covalent derivatization; In the permeation assay it stood as a hydrogel droplet formed at 40 mg/ml (2 mM); also called N-terminal fragment; full-length fragment; source: E. coli BL21 Rosetta 2(DE3), purified under denaturing conditions (Ni-NTA), tag removed with TEV protease; …

Tests used:
[1] = target: the molecule itself; assay: hydrogel formation (gelation); purified fragment concentrated to 40 mg/ml (2 mM) in 2 M urea, 50 mM HEPES-NaOH pH 8.0, 1 mM TCEP, 1 mM EDTA, left in silicone tubing at room temperature, squeezed out and photographed
[2] = target: B1; assay: hydrogel permeation assay (confocal microscopy); droplets of the PEX13 1-193 hydrogel (40 mg/ml) in 25 mM HEPES-KOH pH 7.8, 130 mM KCl; GFP fusion proteins or GFP alone added at 500 nM; enrichment inside the gel over buffer after 30 min; settings: both partners purified

| fold enrichment inside the gel over buffer [2] [fold] | Binder | binding result [1] |
| --- | --- | --- |
| – | isolated YG domain of Arabidopsis thaliana PEX13, amino acids 76–193 (domain or fragment, PEX13 of Arabidopsis thaliana, GenBank NP_187412.1, amino acids 76-193 (YG domain); single engineered cysteine at the C terminus for covalent derivatization; also called YG domain alone; source: E. coli BL21 Rosetta 2(DE3), purified under denaturing conditions (Ni-NTA), tag removed with TEV protease; not shown: 14×His, N-terminal, cleaved) EQQNYGSTMGGGYGSNLGMTSGYGSGTYGSALGGYGSSYGGGMYGGSSMYRGGYGGGGLYGSSGMYGGGAMGGYGGTMGGYGMGMGTGMGMGMGMGMGGPYGSQDPNDPFNQPPSPPGC | binds |
| – | B1 | binds |
| ~20 | full-length PEX5 fused to GFP (receptor, C-terminal GGSGGS linker and mEGFP left out) not shown | – |
